# According to patent US20210155689A1 (SHANGHAI PHARMAEXPLORER, published 2021):
# T1: human LAG-3 protein with hFc tag (hLAG-3-hFc protein) (human, UniProt P18627 23-450)
# T1 construct: also called immunogen 1; LAG-3 extracellular domain protein; not shown: human IgG Fc fragment (hFc) of the pCpC vector
# T1 sequence: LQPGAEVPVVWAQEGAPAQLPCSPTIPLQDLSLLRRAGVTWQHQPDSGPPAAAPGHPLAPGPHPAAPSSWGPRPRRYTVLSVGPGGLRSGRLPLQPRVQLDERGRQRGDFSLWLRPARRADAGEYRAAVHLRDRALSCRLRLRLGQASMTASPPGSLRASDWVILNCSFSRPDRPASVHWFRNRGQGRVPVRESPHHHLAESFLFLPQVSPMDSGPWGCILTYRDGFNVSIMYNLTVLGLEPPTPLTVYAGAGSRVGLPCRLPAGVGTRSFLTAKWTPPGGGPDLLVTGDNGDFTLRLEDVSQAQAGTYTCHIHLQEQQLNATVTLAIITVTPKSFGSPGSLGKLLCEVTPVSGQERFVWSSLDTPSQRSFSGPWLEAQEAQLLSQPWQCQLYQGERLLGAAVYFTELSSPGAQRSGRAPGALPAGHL
# T2: hFc tagged monkey LAG-3 protein (cLAG-3-hFc protein) (monkey; human)
# T2 construct: Made in HEK293 cells; also called monkey LAG-3 extracellular domain protein; not shown: human IgG Fc fragment (hFc) of the pCpC vector
# T2 chain: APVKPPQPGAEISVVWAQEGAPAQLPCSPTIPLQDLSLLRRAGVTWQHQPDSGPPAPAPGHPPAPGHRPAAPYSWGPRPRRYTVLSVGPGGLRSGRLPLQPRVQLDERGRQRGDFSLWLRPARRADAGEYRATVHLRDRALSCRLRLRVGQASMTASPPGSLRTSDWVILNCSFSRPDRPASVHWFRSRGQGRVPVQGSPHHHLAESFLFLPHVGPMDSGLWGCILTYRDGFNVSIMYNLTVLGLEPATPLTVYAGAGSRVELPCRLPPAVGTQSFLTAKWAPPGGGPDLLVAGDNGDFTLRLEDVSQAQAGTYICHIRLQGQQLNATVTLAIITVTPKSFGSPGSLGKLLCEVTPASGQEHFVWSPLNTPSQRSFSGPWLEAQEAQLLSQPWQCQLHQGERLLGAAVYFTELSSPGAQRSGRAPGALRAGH
# T3: human LAG-3 on cells (HEK293-hLAG-3 stable cell line) (human, UniProt P18627 23-525)
# T3 sequence: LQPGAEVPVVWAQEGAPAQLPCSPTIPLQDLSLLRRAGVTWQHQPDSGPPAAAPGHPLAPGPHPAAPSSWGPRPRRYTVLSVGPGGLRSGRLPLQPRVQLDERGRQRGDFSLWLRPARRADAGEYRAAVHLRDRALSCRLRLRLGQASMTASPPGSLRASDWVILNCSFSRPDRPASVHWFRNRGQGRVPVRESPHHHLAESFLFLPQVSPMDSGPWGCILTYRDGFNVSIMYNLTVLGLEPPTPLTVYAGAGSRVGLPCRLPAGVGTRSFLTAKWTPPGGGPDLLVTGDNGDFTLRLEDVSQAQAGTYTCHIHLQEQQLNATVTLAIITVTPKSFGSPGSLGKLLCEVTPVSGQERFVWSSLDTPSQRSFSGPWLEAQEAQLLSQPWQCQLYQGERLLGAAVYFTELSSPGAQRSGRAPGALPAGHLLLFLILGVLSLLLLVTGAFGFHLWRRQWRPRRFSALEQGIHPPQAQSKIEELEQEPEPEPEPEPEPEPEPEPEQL
# B1: 405B8H3 (mouse antibody purified from hybridoma) (antibody, V domains shown)
# VH: QVQLQQSGAELVRPGASVTLSCKASGYTFTDYEMHWVKQTPVHGLEWIGATDPETGNSAYNQKFKGKAIMTADKSSSTAYMELRSLTSEDSAVYYCISTGWNDWGQGTSLTVSS
# VL: DIKMTQSPSSMYASLGERVTITCKASQDINSYLSWFQQKPGKSPKTLIYRADRLLDGVPSRFSGSGSGQDYSLTISSLEYGDMGIYYCLQYDEFPYTFGGGTKLEIK
# notes: also called mAb103-405B8H3; 405B81-13
# B2: 105F1E10 (mouse antibody purified from hybridoma) (antibody, V domains shown)
# VH: EVQLQQSGPELVKPGASVKMSCRASGYTFTDFKMHWMKQSHGKSLEWIGYIAPNNGGTAYNQKFRGKATLTVNESSNTAYMELRSLTSEDSAVYYCVDWDDVDYWGQGTTLTVSS
# VL: DIKMTQSPSSMYASLGERVTITCKASQDINSYLSWFQQKSGKSPKTLIYRANRLVDGVPSRFSGSGSGQDYSLTISSLEYEDMGIYYCLQYVEFPLTFGAGTKLELK
# notes: also called mAb009-105F1E10
# B3: 409B11E12 (mouse antibody purified from hybridoma) (antibody, V domains shown)
# VH: QVQLQQSGAELVRPGASVTLSCKASGYTFTDYEMHWVKQTTVHGLEWIGATDPETSYSAYNQKFKGKAILTADKSSSTAYMELRSLTSEDSAVYYCIATGWNDWGQGTSLTVSS
# VL: DLKMTQSPSSMYASLGERVTITCKASQDINSYLSWFQQKPGKSPKTLIYRANRLLDGVPSRFSGSGSGQDYSLTISSLEYEDMGIYYCLQYDEFPYTFGGGTKLEIK
# notes: also called mAb104-409B11E12
# B4: 409D4E10 (mouse antibody purified from hybridoma) (antibody, V domains shown)
# VH: QVQLQQSGAELVRPGASVTLSCKASGNTFTDYEMHWVKQTPVHGLEWIGATDPETDNTAYNQKFKGKAILTTDKSSSTAYMELRSLTSEDSAVYYCITSGWNDWGQGTSLTVSS
# VL: DIKMTQSPSSMYASLGERVTITCKASQDINSYLSWFQQKPGKSPKTLIYRANRLLDGVPSRFSGSGSGQDYSLTISSLEYEDMGIYYCLQYNEFPYTFGGGTKLEIK
# notes: also called mAb112-409D4E10
# B5: 556F6B8 (mouse antibody purified from hybridoma) (antibody, V domains shown)
# VH: RVQLKQSGPGLVQPSQSLSITCTVSGFSLIKYGVHWVRQSPGEGLEWLGVIWRGGITDYNAAFMSRLSITKDNSKSQVFFKMNSLQADDTAIYYCAKWDGPLAMDYWGQGTSVTVSS
# VL: DIVMTQSHKFLSTSVGDRVSITCKASQDVGTTVAWYQQKPGQSPKLLIYWASTRHTGVPDRFTGSGSGTDFTLTISNVQSEDLADYFCQQYSSYPYTFGGGTKLEIK
# notes: also called mAb123-556F6B8
# B6: 405B8H3 (LAG-3 mouse-human chimeric antibody) (antibody, V domains shown)
# VH: QVQLQQSGAELVRPGASVTLSCKASGYTFTDYEMHWVKQTPVHGLEWIGATDPETGNSAYNQKFKGKAIMTADKSSSTAYMELRSLTSEDSAVYYCISTGWNDWGQGTSLTVSS
# VL: DIKMTQSPSSMYASLGERVTITCKASQDINSYLSWFQQKPGKSPKTLIYRADRLLDGVPSRFSGSGSGQDYSLTISSLEYGDMGIYYCLQYDEFPYTFGGGTKLEIK
# notes: also called mouse-human chimeric antibody 405B8H3
# B7: 105F1E10 (LAG-3 mouse-human chimeric antibody) (antibody, V domains shown)
# VH: EVQLQQSGPELVKPGASVKMSCRASGYTFTDFKMHWMKQSHGKSLEWIGYIAPNNGGTAYNQKFRGKATLTVNESSNTAYMELRSLTSEDSAVYYCVDWDDVDYWGQGTTLTVSS
# VL: DIKMTQSPSSMYASLGERVTITCKASQDINSYLSWFQQKSGKSPKTLIYRANRLVDGVPSRFSGSGSGQDYSLTISSLEYEDMGIYYCLQYVEFPLTFGAGTKLELK
# B8: 409D4E10 (LAG-3 mouse-human chimeric antibody) (antibody, V domains shown)
# VH: QVQLQQSGAELVRPGASVTLSCKASGNTFTDYEMHWVKQTPVHGLEWIGATDPETDNTAYNQKFKGKAILTTDKSSSTAYMELRSLTSEDSAVYYCITSGWNDWGQGTSLTVSS
# VL: DIKMTQSPSSMYASLGERVTITCKASQDINSYLSWFQQKPGKSPKTLIYRANRLLDGVPSRFSGSGSGQDYSLTISSLEYEDMGIYYCLQYNEFPYTFGGGTKLEIK
# B9: 409B11E12 (LAG-3 mouse-human chimeric antibody) (antibody, V domains shown)
# VH: QVQLQQSGAELVRPGASVTLSCKASGYTFTDYEMHWVKQTTVHGLEWIGATDPETSYSAYNQKFKGKAILTADKSSSTAYMELRSLTSEDSAVYYCIATGWNDWGQGTSLTVSS
# VL: DLKMTQSPSSMYASLGERVTITCKASQDINSYLSWFQQKPGKSPKTLIYRANRLLDGVPSRFSGSGSGQDYSLTISSLEYEDMGIYYCLQYDEFPYTFGGGTKLEIK
# B10: 556F6B8 (LAG-3 mouse-human chimeric antibody) (antibody, V domains shown)
# VH: RVQLKQSGPGLVQPSQSLSITCTVSGFSLIKYGVHWVRQSPGEGLEWLGVIWRGGITDYNAAFMSRLSITKDNSKSQVFFKMNSLQADDTAIYYCAKWDGPLAMDYWGQGTSVTVSS
# VL: DIVMTQSHKFLSTSVGDRVSITCKASQDVGTTVAWYQQKPGQSPKLLIYWASTRHTGVPDRFTGSGSGTDFTLTISNVQSEDLADYFCQQYSSYPYTFGGGTKLEIK
# notes: also called 556F8B8
# B11: 105F1E10 mouse-human chimeric antibody (antibody, V domains shown)
# VH: EVQLQQSGPELVKPGASVKMSCRASGYTFTDFKMHWMKQSHGKSLEWIGYIAPNNGGTAYNQKFRGKATLTVNESSNTAYMELRSLTSEDSAVYYCVDWDDVDYWGQGTTLTVSS
# VL: DIKMTQSPSSMYASLGERVTITCKASQDINSYLSWFQQKSGKSPKTLIYRANRLVDGVPSRFSGSGSGQDYSLTISSLEYEDMGIYYCLQYVEFPLTFGAGTKLELK
# notes: also called mAb009-105F1E10
# B12: 556F6B8 mouse-human chimeric antibody (antibody, V domains shown)
# VH: RVQLKQSGPGLVQPSQSLSITCTVSGFSLIKYGVHWVRQSPGEGLEWLGVIWRGGITDYNAAFMSRLSITKDNSKSQVFFKMNSLQADDTAIYYCAKWDGPLAMDYWGQGTSVTVSS
# VL: DIVMTQSHKFLSTSVGDRVSITCKASQDVGTTVAWYQQKPGQSPKLLIYWASTRHTGVPDRFTGSGSGTDFTLTISNVQSEDLADYFCQQYSSYPYTFGGGTKLEIK
# notes: also called mAb123-556F6B8; 556F8B8
# Molecular target: T1, human LAG-3 protein with hFc tag …
# Assay: FACS, blocks LAG-3-hFc binding to MHC II on Raji; 2.469 nM
# Description: The FACS reaction plate incubating the Raji cells was centrifuged to discard the supernatant. The above mixture was added as 100 μl per well to Raji cells and incubated on ice for 1-2 hours. The plate was washed twice with blocking solution (PBS, 2% fetal bovine serum) by centrifugation, added with 100 microliters of fluorescent (Alexa 488)-labeled secondary antibodies per well, and incubated on ice for 1.0 hours. The plate was washed 2-3 times by centrifugation with blocking solution (PBS, 2% fetal bovine serum), added with 100 microliters of PBS per well to suspend cells, and detected using FACS (FACS Calibur, BD) and the results were analyzed. Wherein, the IgG control was murine IgG, and the data in the table is the inhibition rate (%).
row,Binder,Inhibition rate (%)
1,B1,41.9
2,B2,27.8
3,B3,39.6
4,B4,44.7
5,B5,48.1

# Molecular target: T2, hFc tagged monkey LAG-3 protein …
# Assay: ELISA, cLAG-3-hFc coated; 0.6667 nM
# Description: The plate was sealed with plastic film and incubated overnight at 4° C. The plate was washed 2 times with the plate washing solution (PBS+0.01% Tween20) on the next day, and added with the blocking solution (PBS+0.01% Tween20+1% BSA) and blocked at room temperature for 1-2 hours. The blocking solution was poured out, and the plate was added with 50-100 μl of the antibody sample to be tested to each well, incubated at 37° C. for 1-2 hours, and washed 2-3 times with a plate washing solution (PBS+0.01% Tween20). HRP (horseradish peroxidase) labeled secondary antibody was added, and the plate was incubated at 37° C. for 1-2 hours, and washed 2-3 times with a plate washing solution (PBS+0.01% Tween20). 100 μl of TMB substrate was added to each well. After incubated at room temperature for 15-30 minutes, the plate was added with 100 μl of stop solution (1.0N HCl) to each well.
row,Binder,OD450 [OD450]
1,B6,3.39
2,B7,3.38
3,B8,3.78
4,B9,3.36
5,B10,3.7

# Molecular target: T3, human LAG-3 on cells (HEK293-hLAG-3 …)
# Assay: FACS, HEK293-hLAG-3, antibody 200.000 nM
# From the text: The pIRES plasmid with the monkey-derived full-length gene was transfected into the HEK293 cell line to construct a HEK293 stable cell line containing monkey LAG-3 (herein referred to as HEK293-cLAG-3 stable cell line). The HEK293-hLAG-3 stable cell line and HEK293-cLAG-3 stable cell line were expanded in a T-75 cell culture flask to a 90% confluence. The medium was aspirated, and the cells were washed with HBSS (Hanks' Balanced Salt Solution) 1-2 times, then treated with a enzyme-free cell dissociation fluid (Versene solution: Life technology) and the cells were collected. The cells were washed with HBSS buffer for 1-2 times. After counted, the cells were diluted with HBSS to 1-2×10⁶ cells per ml, added with 1% goat serum blocking solution, incubated on ice for 20-30 minutes, and then washed with HBSS for 2 times by centrifugation. The collected cells were suspended in the FACS buffer (HBSS+1% BSA) to 2×10⁶ cells/ml, added as 100 microliters per well to a 96-well FACS reaction plate, added with 100 microliters per well of the antibody sample to be tested, incubated on ice for 1-2 hours. The plate was washed twice with the FACS buffer by centrifugation, added with 100 microliters of fluorescent (Alexa 488)-labeled secondary antibodies per well, and incubated on ice for 0.5-1.0 hours. The plate was washed 2-3 times with FACS buffer by centrifugation, added with 100 μl fixative solution (4% Paraformaldehyde) per well to suspend the cells. 5-10 minutes later, it was washed 1-2 times with FACS buffer by centrifugation. The cells were suspended with 100 microliters of FACS buffer, FACS (FACSCalibur, BD) was used for detection and the results were analyzed.
row,Binder,Mean fluorescence intensity
1,B11,175
2,B12,125
